This passage reports Ki results from PMC5360024, “The Alzheimer’s disease risk factors apolipoprotein E and TREM2 are linked in a receptor signaling pathway” (Journal of Neuroinflammation, 2017).

Holding throughout (conditions): both partners purified
Assay [1] deals with T1, Recombinant human TREM2 (human, UniProt Q9NZC2 19-174).
T1 construct: Triggering receptor expressed on myeloid cells 2 (TREM2), human, recombinant; As I recall, this catalogue item is the extracellular domain with a C-terminal His tag; also called triggering receptor expressed on myeloid cells 2; hTREM2; source: bought: Sino Biological Inc. (#11084-H08H)
T1 sequence (looked up): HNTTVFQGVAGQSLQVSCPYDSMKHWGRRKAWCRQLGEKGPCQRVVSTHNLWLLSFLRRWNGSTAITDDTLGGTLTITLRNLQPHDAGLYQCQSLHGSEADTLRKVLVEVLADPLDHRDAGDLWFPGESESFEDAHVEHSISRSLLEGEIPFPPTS
Kind of assay: ELISA; competition: human TREM2 (40 nM) coated; 6 nM ApoE ε2 with 0-6 μM ApoE-mim149 or scrambled peptide, 1 h at RT; bound full-length ApoE detected with polyclonal anti-ApoE; one site-fit Ki. (In an ELISA, binding on a coated surface is turned into a signal by an enzyme label.)

Assay [2] addresses T1, Recombinant human TREM2. Kind of assay: ELISA; competition: human TREM2 (40 nM) coated; 6 nM ApoE ε3 with 0-6 μM ApoE-mim149 or scrambled peptide, 1 h at RT; bound full-length ApoE detected with polyclonal anti-ApoE; one site-fit Ki.
The target in assay [3] is T1, Recombinant human TREM2. Kind of assay: ELISA; competition: human TREM2 (40 nM) coated; 6 nM ApoE ε4 with 0-6 μM ApoE-mim149 or scrambled peptide, 1 h at RT; bound full-length ApoE detected with polyclonal anti-ApoE; one site-fit Ki.

B1: ApoE-mimetic peptide corresponding to amino acids 130–149 (peptide)
peptide: Ac-TEELRVRLASHLRKLRKRLL-NH2
notes: also called ApoE-mim149; source: synthetic peptide, bought: GenScript
In the case of B1, the inhibition constant Ki in the assay with Recombinant human TREM2 [1] came to 827 nM; with Recombinant human TREM2 [2], 475 nM; with Recombinant human TREM2 [3], 1540 nM.

What is called Ki is the equilibrium dissociation constant of an inhibitor or competing ligand from its target.
